# Source: patent US20230391882A1 (NUMAB THERAPEUTICS, published 2023)
# Where a chain is given by its changes, count along the chain named. Where two headings read alike, the source gives them in different places.
# B1: PRO1124 (38-02-A04 sc06 Full scDb-i/33-03-G02 sc01 scDb-o) (bispecific antibody)
# chain: DIQMTQSPSSLSASVGDRVTITCQASQSINDYLAWYQQKPGKAPKLLIYKASTLASGVPSRFSGSGSGTDFTLTISSLQPEDFATYYCQQGYIITDIDNVFGTGTKVTVLGGGGGSQVQLQESGPGLVKPSETLSLTCKASGFSFSNSYWICWVRQPPGKGLEWIGCTFVGSSDSTYYANWAKGRVTISKDSSKNQVSLKLSSVTAADTAVYFCARHPSDAVYGYANNLWGQGTLVTVSSGGGGSGGGGSGGGGSGGGGSLQMTQSPSSLSASVGDRVTITCQASQSINNVLAWYQQKPGKPPKLLIYRASTLASGVPSRFSGSGSGTDFTLTISSLQPEDFATYYCQSSYGNYGDFGTGTKVTVLGGGGGSQVQLQESGPGLVKPSETLSLTCKVSGFSFSSGYDMCWIRQPPGKGLEWIGCVVAGSVDITYYASWAKGRVTISVDSSKNQFSLKLSSVTAADTAVYYCARKDAYSDAFNLWGQGTLVTVSS
# B2: PRO885 (38-02-A04 sc01 scDb-i/33-03-G02 sc01 scDb-o) (bispecific antibody)
# chain: B1 chain with A140V, V154I, K190V, V197F, F213Y, L261I, P302A
# B3: PRO1480 (38-27-A11 sc02 scDb-i/37-20-B03 sc09.1 scDb-o/19-01-H04 sc03 scFv) (other)
# chain: DIQMTQSPASLSASVGDRVTITCQASQSIGTYLAWYQQKPGKPPKLLIYRAFILASGVPSRFSGSGSGTDFTLTISSLQPEDFATYYCQSNFYSDSTTIGPNAFGTGTKVTVLGGGGGSEVQLVESGGGLVQPGGSLRLSCAASGFSFSANYYPCWVRQAPGKGLEWIGCIYGGSSDITYDANWTKGRFTISRDNSKNTVYLQMNSLRAEDTAVYYCARSAWYSGWGGDLWGQGTLVTVSSGGGGSGGGGSGGGGSGGGGSIQMTQSPSSLSASVGDRVTITCQASQSISNRLAWYQQKPGKAPKLLIYSASTLASGVPSRFSGSGSGTDFTLTISSLQPEDFATYYCQSTYYGNDGNAFGTGTKVTVLGGGGGSEVQLVESGGGLVQPGGSLRLSCAASGFSFNSDYWIYWVRQAPGKGLEWIASIYGGSSGNTQYASWAQGRFTISRDNSKNTVYLQMNSLRAEDTAVYFCARGYVDYGGATDLWGQGTLVTVSSGGGGSGGGGSIQMTQSPSSLSASVGDRVTITCQSSESVYSNNQLSWYQQKPGQPPKLLIYDASDLASGVPSRFSGSGSGTDFTLTISSLQPEDFATYYCAGGFSSSSDTAFGGGTKLTVLGGGGGSGGGGSGGGGSGGGGSEVQLVESGGGLVQPGGSLRLSCAASGFSLSSNAMGWVRQAPGKGLEYIGIISVGGFTYYASWAKGRFTISRDNSKNTVYLQMNSLRAEDTATYFCARDRHGGDSSGAFYLWGQGTLVTVSS
# B4: PRO1872 (MSLN x CD3 x hSA) (54-22-H03-sc01 scFv/28-21-D09-sc04 scDb-i/23-13-A01-sc02 diS scDb-o) (other)
# chain: DVVMTQSPSSLSASVGDRVTITCQASQIISSRSAWYQQKPGQPPKLLIYQASKLASGVPSRFSGSGSGTDFTLTISSLQPEDFATYYCQCTYIDSNFGAFGCGTKLTVLGGGGGSEVQLVESGGGLVQPGGSLRLSCAASGFSLSSYDMSWVRQAPGKGLAWIGASYASGPTYYASWAKGRFTISRDNSKNTVYLQMNSLRAEDTATYFCARGGWTGTSHSNIWGQGTLVTVSSGGGGSGGGGSGGGGSGGGGSDIQMTQSPSSLSASVGDRVTITCQSSQSVFSNNYLAWFQQKPGQSPKRLIYSASTLASGVPSRFSGSGSGTDFTLTISSLQPEDFATYYCLGSYACSSADCYVFGTGTKVTVLGGGGGSEVQLVESGGGLVQPGGSLRLSCAASGFSFSSSYWICWVRQAPGKCLEWVGCVFTGDGTTYYASWAKGRFTISRDNSKNTVYLQMNSLRAEDTATYFCARPVSVYYYGMDLWGQGTLVTVSSGGGGSGGGGSDIQMTQSPSSLSASVGDRVTITCQASESIGNYLAWYQQKPGKAPKLLIYSASTLASGVPSRFSGSGSGTDFTLTISSLQPEDFATYYCQSTDYGDSYIFGTGTKVTVLGGGGGSGGGGSGGGGSGGGGSEVQLVESGGGLVQPGGSLRLSCAASGISVSNDYYMCWVRQAPGKGLEWIGCISTYIGNTHYASWAKGRFTISRDNSKNTVYLQMNSLRAEDTAVYYCAKNAGYPGYRYAIDLWGQGTLVTVSS
# notes: also called MSLNlowKDxCD3xhSA
# Assays:
# [1] = target: T1, human CD137 on the transgenic NF-kB Jurkat reporter cell line (human, UniProt Q07011 24-255); experiment: cell-based or functional assay
# human PDL1 [2] = target: T2, human PDL1 (human, UniProt Q9NZQ7 19-238, limits assumed); experiment: cell-based or functional assay
# [3] = target: T1, human CD137 on the transgenic NF-kB …; experiment: cell-based or functional assay; remark: listed apart in the source
# human PDL1 [4] = target: T2, human PDL1; experiment: cell-based or functional assay; remark: listed apart in the source
# [5] = target: T1, human CD137 on the transgenic NF-kB …; experiment: cell-based or functional assay; remark: listed apart in the source
# human PDL1 [6] = target: T2, human PDL1; experiment: cell-based or functional assay; remark: listed apart in the source
# [7] = target: soluble mesothelin (sMSLN) (UniProt Q13421 296-580, limits assumed); experiment: cell-based or functional assay
# [8] = target: T3, mesothelin (MSLN) on target cells (H226, MeT-5A) (UniProt Q13421 37-598, limits assumed); experiment: cell-based or functional assay
# [9] = target: T3, mesothelin (MSLN) on target cells …; experiment: cell-based or functional assay; remark: listed apart in the source
# [10] = target: T3, mesothelin (MSLN) on target cells …; experiment: cell-based or functional assay; remark: listed apart in the source
# [11] = target: T3, mesothelin (MSLN) on target cells …; experiment: cell-based or functional assay; remark: listed apart in the source
# [12] = target: T3, mesothelin (MSLN) on target cells …; experiment: cell-based or functional assay; remark: listed apart in the source
# [13] = target: T3, mesothelin (MSLN) on target cells …; experiment: cell-based or functional assay; remark: listed apart in the source
# [14] = target: T3, mesothelin (MSLN) on target cells …; experiment: cell-based or functional assay; remark: listed apart in the source
# [15] = target: T3, mesothelin (MSLN) on target cells …; experiment: cell-based or functional assay; remark: listed apart in the source
# [16] = target: T3, mesothelin (MSLN) on target cells …; experiment: cell-based or functional assay; remark: listed apart in the source
# [17] = target: recombinant human mesothelin (human MSLN) (human, UniProt Q13421 296-580, limits assumed); experiment: KD ratio told in running text; method not given
binder,measurement,setting,value
B1,"EC50 (read off the curve); NF-kB reporter gene assay, rising part of the curve",[1],~0.1 nM
same,"IC50 (read off the curve); NFAT reporter gene assay, blocked ligand PD-1",human PDL1 [2],~1 nM
B2,"EC50 (read off the curve); NF-kB reporter gene assay, rising part of the curve",[3],~0.3 nM
same,"IC50 (read off the curve); NFAT reporter gene assay, blocked ligand PD-1",human PDL1 [4],~2 nM
B3,EC50 (read off the curve); NF-kB reporter gene assay,[5],~0.07 nM
same,"IC50 (read off the curve); NFAT reporter gene assay, blocked ligand PD-1",human PDL1 [6],~0.5 nM
B4,increase of EC50 for killing high MSLN expressing target cells in the presence of 50 ng/ml sMSLN,[7],~8 fold
same,increase of EC50 for killing high MSLN expressing target cells in the presence of 500 ng/ml sMSLN,[7],> 75 fold
same,EC50 (read off the curve); specific killing of H226 cells (high MSLN),[8],~0.005 nM
same,EC50 (read off the curve); specific killing of MeT-5A cells (low MSLN),[9],~0.01 nM
same,EC50 (read off the curve); activated CD8+ cells (CD69+) with MeT-5A cells (low MSLN),[10],~0.01 nM
same,"EC50 (read off the curve); specific killing of H226 cells, no sMSLN",[11],~0.05 nM
same,"EC50 (read off the curve); specific killing of H226 cells, in presence of 50 ng/ml sMSLN",[12],~0.6 nM
same,"EC50 (read off the curve); specific killing of H226 cells, in presence of 500 ng/ml sMSLN",[13],~5 nM
same,"EC50 (read off the curve); activated CD8+ cells (CD69+) with H226 cells, without sMSLN",[14],~0.02 nM
same,"EC50 (read off the curve); activated CD8+ cells (CD69+) with H226 cells, with 50 ng/ml sMSLN",[15],~0.2 nM
same,"EC50 (read off the curve); activated CD8+ cells (CD69+) with H226 cells, with 500 ng/ml sMSLN",[16],~1 nM
same,"fold better binding affinity (KD) than the MSLN-BDs of PRO2000, PRO2562, PRO2566 and PRO2567",[17],> 5 fold
